From publication PMC4247251

Biological target: PhTX-II PLA2 (Porthidium hyoprora)

Row | Substance | inhibition of the PLA2 enzymatic activity of PhTX-II (substrate 4-nitro-3-(octanoyloxy) benzoic acid) after incubating the two proteins 1:1 w/w for 30 min at 37 °C [%]
1 | crotapotin F2 from Crotalus durissus collilineatus (natural protein) | 60
2 | crotapotin F3 from Crotalus durissus collilineatus (natural protein) | 60
